Source: paper PMC4942678, “A Salmonella Toxin Promotes Persister Formation through Acetylation of tRNA” (Molecular Cell, 2016)

How the values were obtained:
[1] = target: the molecule itself; test: crystal structure; T8^Y140F with Ac-CoA bound, 1.7 Å, space group P2_(1); a dimer in the asymmetric unit
[2] = target: the molecule itself; test: SEC-MALS; size-exclusion chromatography with multi-angle laser light scattering (SEC-MALLS), in solution

B1: TacT^Y140F (tRNA-acetylating toxin, Y140F mutant) (enzyme)
chain: MGRVTAPEPLSAFHQVAEFVSGEAVLDDWLKQKGLKNQALGAARTFVVCKKDTKQVAGFYSLATGSVNHTEATGNLRRNMPDPIPVIILARLAVDLSFHGKGLGADLLHDAVLRCYRVAENIGVRAIMVHALTEEAKNFFIHHGFKSSQTQQRTLFLRLPQ
notes: also called T8^Y140F; source: purified; produced in the absence of its antitoxin A8 (E. coli expression strain BL21)
[1]
  binding result: binds

B2: TacT (tRNA-acetylating toxin), wild type (enzyme)
chain: MGRVTAPEPLSAFHQVAEFVSGEAVLDDWLKQKGLKNQALGAARTFVVCKKDTKQVAGFYSLATGSVNHTEATGNLRRNMPDPIPVIILARLAVDLSFHGKGLGADLLHDAVLRCYRVAENIGVRAIMVHALTEEAKNFYIHHGFKSSQTQQRTLFLRLPQ
notes: also called T8; the toxin
[2]
  stoichiometry N: 2
